Article doi:10.1101/2023.02.23.529715 (bioRxiv, 2023)
Where two headings read alike, the source gives them in different places.

T1: GFP-HilD (Salmonella enterica, UniProt P0CL08 1-309)
T1 sequence (looked up): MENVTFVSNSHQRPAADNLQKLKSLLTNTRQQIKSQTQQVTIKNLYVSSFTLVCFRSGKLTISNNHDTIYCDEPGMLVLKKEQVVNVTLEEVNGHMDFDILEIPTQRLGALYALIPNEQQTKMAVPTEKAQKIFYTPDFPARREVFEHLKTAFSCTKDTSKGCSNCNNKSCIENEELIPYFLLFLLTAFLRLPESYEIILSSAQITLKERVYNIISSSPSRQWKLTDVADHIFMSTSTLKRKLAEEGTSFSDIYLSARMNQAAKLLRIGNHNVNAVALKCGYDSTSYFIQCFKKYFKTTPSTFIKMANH

B1: HilD (full length, unfused) (natural protein, Salmonella enterica, UniProt P0CL08 1-309, looked up)
chain: T1 sequence (looked up)
B2: HilD N-terminal domain (HilD NTD, residues 7-206) (domain or fragment, Salmonella enterica, UniProt P0CL08 7-206, looked up)
chain: VSNSHQRPAADNLQKLKSLLTNTRQQIKSQTQQVTIKNLYVSSFTLVCFRSGKLTISNNHDTIYCDEPGMLVLKKEQVVNVTLEEVNGHMDFDILEIPTQRLGALYALIPNEQQTKMAVPTEKAQKIFYTPDFPARREVFEHLKTAFSCTKDTSKGCSNCNNKSCIENEELIPYFLLFLLTAFLRLPESYEIILSSAQIT

Assays:
[1] = biological target: HilD (full length, unfused) (Salmonella enterica) (UniProt P0CL08); assay: SEC-MALS
[2] = biological target: HilD N-terminal domain (HilD NTD, residues 7-206) (Salmonella enterica) (UniProt P0CL08); assay: SEC-MALS
[3] = biological target: GFP-HilD (Salmonella enterica) (UniProt P0CL08); assay: MST
[4] = biological target: GFP-HilD (Salmonella enterica) (UniProt P0CL08); assay: MST; remark: listed apart in the source
SEC-MALS = biological target: the molecule itself; assay: SEC-MALS
GFP-HilD [5] = biological target: T1, GFP-HilD; assay: MST
GFP-HilD [6] = biological target: T1, GFP-HilD; assay: MST; remark: listed apart in the source

Molecule | stoichiometry N (HilE per HilD) [1] | stoichiometry N (HilE per HilD NTD) [2] | Kd [3] [nM] | Kd [4] [nM] | stoichiometry N (SEC-MALS) | Kd (GFP-HilD [5]) [nM] | Kd (GFP-HilD [6]) [nM]
HilE (natural protein) | 1 | 1 | 1680 | 1700 | – | – | –
B1 | – | – | – | – | 2 | 3390 ± 770 | 4520 ± 500
B2 | – | – | – | – | 2 | – | –
